Measurements as given in paper PMC10325899.

Molecular target: fluorescein labeled GST-PKM1 (UniProt P14618)
Experiment: MST; 40 nM fluorescein-labelled PKM1 with salt-washed ribosomes titrated from 0 to about 1.5 μM in PBS + 5 mM MgCl2, room temperature; three batches of ribosomes fitted globally to a 1:1 model; binding not fully saturated

UniProt P14618, sequence (P14618 other isoform, or with tags, fused parts or gaps): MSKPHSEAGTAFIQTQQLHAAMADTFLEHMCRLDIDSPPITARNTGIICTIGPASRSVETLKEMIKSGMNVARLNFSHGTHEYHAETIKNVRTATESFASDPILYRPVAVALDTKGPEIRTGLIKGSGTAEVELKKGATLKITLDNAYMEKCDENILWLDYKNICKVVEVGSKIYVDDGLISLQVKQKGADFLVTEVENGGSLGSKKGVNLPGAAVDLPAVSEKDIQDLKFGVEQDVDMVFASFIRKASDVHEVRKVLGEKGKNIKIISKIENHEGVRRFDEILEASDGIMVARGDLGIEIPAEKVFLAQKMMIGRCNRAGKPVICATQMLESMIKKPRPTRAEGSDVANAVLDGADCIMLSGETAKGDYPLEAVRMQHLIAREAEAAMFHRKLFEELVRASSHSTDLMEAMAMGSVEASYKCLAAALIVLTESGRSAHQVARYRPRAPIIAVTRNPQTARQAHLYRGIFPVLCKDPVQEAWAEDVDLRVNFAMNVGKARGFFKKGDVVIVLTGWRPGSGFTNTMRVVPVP

## salt-washed ribosomes isolated from HEK293F cells (from UniProt P36578 1-427) (complex)
  Kd: 900 nM
